What was measured:
Experiment in all cases: pulldown
[1] = molecular target: T1, HRP1 (Saccharomyces cerevisiae) (UniProt Q99383); settings: 20 nM protein, 1.5 uM RNA pool; 20 mM HEPES pH 7.8, 70 mM KCl, 10 mM NaCl, 10% glycerol, 2 mM DTT, 0.1 ug/uL BSA; 30 min, 4 C (protocol of this paper; not …); cited from earlier work
T1 sequence: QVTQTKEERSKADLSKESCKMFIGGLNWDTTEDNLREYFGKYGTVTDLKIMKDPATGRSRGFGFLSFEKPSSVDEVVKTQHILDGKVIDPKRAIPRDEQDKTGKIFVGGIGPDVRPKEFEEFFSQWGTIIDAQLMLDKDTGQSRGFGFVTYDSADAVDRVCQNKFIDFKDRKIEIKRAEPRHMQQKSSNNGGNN

[2] = molecular target: T2, LmjF.25.0080 (Leishmania major) (UniProt Q4QA88); settings: 20 nM protein, 1.5 uM RNA pool; 20 mM HEPES pH 7.8, 70 mM KCl, 10 mM NaCl, 10% glycerol, 2 mM DTT, 0.1 ug/uL BSA; 30 min, 4 C
T2 sequence: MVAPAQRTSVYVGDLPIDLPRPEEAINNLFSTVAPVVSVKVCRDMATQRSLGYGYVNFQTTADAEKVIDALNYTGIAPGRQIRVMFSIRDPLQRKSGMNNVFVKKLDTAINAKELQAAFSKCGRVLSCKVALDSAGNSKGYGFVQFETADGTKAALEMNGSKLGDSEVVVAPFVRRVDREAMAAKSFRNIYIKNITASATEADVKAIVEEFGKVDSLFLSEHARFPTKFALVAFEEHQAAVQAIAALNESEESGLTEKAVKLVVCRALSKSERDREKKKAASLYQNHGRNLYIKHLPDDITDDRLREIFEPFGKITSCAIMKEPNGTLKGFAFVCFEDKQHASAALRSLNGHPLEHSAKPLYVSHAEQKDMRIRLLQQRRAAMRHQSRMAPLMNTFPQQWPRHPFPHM

[3] = molecular target: T3, Hrb87F (Drosophila melanogaster) (UniProt P48810); settings: 20 nM protein, 1.5 uM RNA pool; 20 mM HEPES pH 7.8, 70 mM KCl, 10 mM NaCl, 10% glycerol, 2 mM DTT, 0.1 ug/uL BSA; 30 min, 4 C (protocol of this paper; not …); cited from earlier work
T3 sequence: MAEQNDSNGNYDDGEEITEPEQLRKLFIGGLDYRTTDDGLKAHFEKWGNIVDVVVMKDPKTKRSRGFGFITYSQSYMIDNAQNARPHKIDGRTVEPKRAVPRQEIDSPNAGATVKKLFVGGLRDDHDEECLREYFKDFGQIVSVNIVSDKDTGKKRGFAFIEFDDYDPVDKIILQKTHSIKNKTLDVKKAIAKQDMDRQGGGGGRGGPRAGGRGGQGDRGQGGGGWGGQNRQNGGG

[4] = molecular target: T4, NCU09742 (Neurospora crassa) (UniProt Q7SEI3); settings: 20 nM protein, 1.5 uM RNA pool; 20 mM HEPES pH 7.8, 70 mM KCl, 10 mM NaCl, 10% glycerol, 2 mM DTT, 0.1 ug/uL BSA; 30 min, 4 C
T4 sequence: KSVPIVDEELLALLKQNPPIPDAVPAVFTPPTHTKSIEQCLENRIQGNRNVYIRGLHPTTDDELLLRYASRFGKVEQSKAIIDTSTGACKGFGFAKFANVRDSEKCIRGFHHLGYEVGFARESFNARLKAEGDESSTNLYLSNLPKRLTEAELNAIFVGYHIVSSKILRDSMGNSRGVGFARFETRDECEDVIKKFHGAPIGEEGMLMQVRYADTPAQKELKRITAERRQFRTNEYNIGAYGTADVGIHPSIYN

[5] = molecular target: estExt_fgenesh1_pg.C_Chr_03.00010087 (Ostreococcus tauri) (UniProt A0A096P7J9); settings: 20 nM protein, 1.5 uM RNA pool; 20 mM HEPES pH 7.8, 70 mM KCl, 10 mM NaCl, 10% glycerol, 2 mM DTT, 0.1 ug/uL BSA; 30 min, 4 C
Sequence of estExt_fgenesh1_pg.C_Chr_03.00010087 (Ostreococcus tauri) (A0A096P7J9 entry or part of it): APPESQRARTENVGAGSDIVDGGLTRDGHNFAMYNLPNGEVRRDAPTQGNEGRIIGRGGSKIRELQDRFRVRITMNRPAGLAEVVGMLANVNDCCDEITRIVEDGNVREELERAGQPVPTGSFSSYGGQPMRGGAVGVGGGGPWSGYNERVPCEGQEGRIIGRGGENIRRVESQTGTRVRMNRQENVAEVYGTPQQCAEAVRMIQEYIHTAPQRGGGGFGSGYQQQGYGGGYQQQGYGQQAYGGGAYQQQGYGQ

[6] = molecular target: T5, PK27183.1 (Cannabis sativa) (UniProt A0A7J6I1V8); settings: 20 nM protein, 1.5 uM RNA pool; 20 mM HEPES pH 7.8, 70 mM KCl, 10 mM NaCl, 10% glycerol, 2 mM DTT, 0.1 ug/uL BSA; 30 min, 4 C
T5 sequence: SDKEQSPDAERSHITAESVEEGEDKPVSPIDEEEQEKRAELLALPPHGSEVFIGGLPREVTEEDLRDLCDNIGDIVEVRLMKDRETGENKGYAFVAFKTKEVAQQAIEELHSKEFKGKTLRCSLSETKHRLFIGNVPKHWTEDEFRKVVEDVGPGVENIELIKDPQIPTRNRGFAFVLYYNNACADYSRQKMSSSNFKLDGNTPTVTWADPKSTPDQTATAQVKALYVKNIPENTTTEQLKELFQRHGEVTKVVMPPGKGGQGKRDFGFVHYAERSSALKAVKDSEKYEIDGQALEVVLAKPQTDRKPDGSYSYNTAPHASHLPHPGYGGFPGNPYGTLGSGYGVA

[7] = molecular target: T6, SCHCODRAFT_80278 (Schizophyllum commune) (UniProt A0ACF2ERL4); settings: 20 nM protein, 1.5 uM RNA pool; 20 mM HEPES pH 7.8, 70 mM KCl, 10 mM NaCl, 10% glycerol, 2 mM DTT, 0.1 ug/uL BSA; 30 min, 4 C
T6 sequence: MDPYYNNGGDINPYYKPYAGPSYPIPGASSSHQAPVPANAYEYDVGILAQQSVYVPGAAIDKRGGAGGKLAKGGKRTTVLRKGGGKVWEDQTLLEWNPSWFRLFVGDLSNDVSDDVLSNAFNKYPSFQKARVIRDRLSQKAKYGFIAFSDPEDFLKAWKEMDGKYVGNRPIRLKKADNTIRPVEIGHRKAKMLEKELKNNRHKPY

[8] = molecular target: T7, LmjF.27.2100 (Leishmania major) (UniProt E9ADJ0); settings: 20 nM protein, 1.5 uM RNA pool; 20 mM HEPES pH 7.8, 70 mM KCl, 10 mM NaCl, 10% glycerol, 2 mM DTT, 0.1 ug/uL BSA; 30 min, 4 C
T7 sequence: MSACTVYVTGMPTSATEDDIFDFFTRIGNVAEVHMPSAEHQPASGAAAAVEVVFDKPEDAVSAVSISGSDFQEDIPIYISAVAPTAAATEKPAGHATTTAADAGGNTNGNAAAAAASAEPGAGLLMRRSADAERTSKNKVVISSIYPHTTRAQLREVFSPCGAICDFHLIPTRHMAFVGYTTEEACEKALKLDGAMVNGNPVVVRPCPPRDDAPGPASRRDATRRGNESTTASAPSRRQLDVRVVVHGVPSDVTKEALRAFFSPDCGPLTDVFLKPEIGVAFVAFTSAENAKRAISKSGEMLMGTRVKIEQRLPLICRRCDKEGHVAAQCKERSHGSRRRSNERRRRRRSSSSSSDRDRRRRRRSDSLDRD

[9] = molecular target: T8, CG1316 G229S (Drosophila melanogaster) (UniProt Q7JRD2); settings: 20 nM protein, 1.5 uM RNA pool; 20 mM HEPES pH 7.8, 70 mM KCl, 10 mM NaCl, 10% glycerol, 2 mM DTT, 0.1 ug/uL BSA; 30 min, 4 C
T8 sequence: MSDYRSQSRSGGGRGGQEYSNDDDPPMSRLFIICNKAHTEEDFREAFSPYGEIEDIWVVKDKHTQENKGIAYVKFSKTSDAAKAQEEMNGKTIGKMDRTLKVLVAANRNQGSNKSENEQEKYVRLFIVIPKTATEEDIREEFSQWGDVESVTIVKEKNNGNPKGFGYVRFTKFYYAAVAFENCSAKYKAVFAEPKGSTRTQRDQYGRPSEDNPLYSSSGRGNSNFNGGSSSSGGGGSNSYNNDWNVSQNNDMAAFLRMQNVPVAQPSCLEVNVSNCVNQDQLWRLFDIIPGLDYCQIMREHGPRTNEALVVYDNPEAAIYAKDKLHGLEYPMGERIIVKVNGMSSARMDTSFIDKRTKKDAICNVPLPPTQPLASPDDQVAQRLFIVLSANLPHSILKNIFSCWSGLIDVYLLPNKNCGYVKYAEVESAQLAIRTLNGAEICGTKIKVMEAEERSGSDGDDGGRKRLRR

In the case of UAUGUA [RNAcompete motif RNCMPT00031], the binding signal (z-score (mean of top ten 7-mers)) [1] is given as 23.4.

AGAAAA [RNAcompete motif RNCMPT00688] gave a binding signal (z-score (mean of top ten 7-mers)) [2] of 9.16.

For GGUAGGG [RNAcompete motif RNCMPT00029], the binding signal (z-score (mean of top ten 7-mers)) [3] is given as 13.4.

Work on AUUAUUA [RNAcompete motif RNCMPT00676] yielded a binding signal (z-score (mean of top ten 7-mers)) [4] of 9.27.

For ACGCGA [RNAcompete motif RNCMPT00694], the binding signal (z-score (mean of top ten 7-mers)) [5] was 10.9.

AGACACA [RNAcompete motif RNCMPT00685] gave a binding signal (z-score (mean of top ten 7-mers)) [6] of 13.3.

Substance AACUAC [RNAcompete motif RNCMPT00678] has a binding signal (z-score (mean of top ten 7-mers)) [7] of 13.6.

Substance GGAGGA [RNAcompete motif RNCMPT00667] has a binding signal (z-score (mean of top ten 7-mers)) [8] of 6.1.

In the case of GACNGAC [RNAcompete motif RNCMPT00698], the binding signal (z-score (mean of top ten 7-mers)) [9] is reported as 10.1.

Reference: article PMC12990809
